We go through 1 molecule from PMC2920595 (Science (New York, N.Y.), 2009).

For the assay, the target named is T1, Ssh1p (large subunit, as in the purified Ssh1 complex) (Saccharomyces cerevisiae, UniProt P38353 1-490).
T1 sequence (looked up): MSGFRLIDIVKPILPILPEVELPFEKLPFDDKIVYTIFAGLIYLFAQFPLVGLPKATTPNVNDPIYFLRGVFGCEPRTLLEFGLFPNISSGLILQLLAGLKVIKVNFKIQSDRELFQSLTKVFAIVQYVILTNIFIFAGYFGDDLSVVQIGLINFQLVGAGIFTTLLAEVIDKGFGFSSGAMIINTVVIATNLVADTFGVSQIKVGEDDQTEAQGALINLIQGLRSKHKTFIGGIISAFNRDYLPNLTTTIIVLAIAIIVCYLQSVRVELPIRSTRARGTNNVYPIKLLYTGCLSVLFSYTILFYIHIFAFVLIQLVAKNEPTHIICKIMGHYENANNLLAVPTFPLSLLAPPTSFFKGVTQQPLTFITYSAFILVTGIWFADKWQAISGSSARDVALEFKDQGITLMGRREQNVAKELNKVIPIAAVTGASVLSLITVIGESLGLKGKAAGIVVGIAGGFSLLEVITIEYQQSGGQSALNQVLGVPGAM
The assay is described as follows: cryo-EM structure.

B1: ribosomal protein rpL25 (yeast 60S subunit) (natural protein)
chain: not shown
With B1, the binding result was “binds”.
